Data as given in patent publication US20100061992A1.

Biological target: mouse TIM-3 on cells (splenic dendritic cells, D2SC1 dendritic cell line, TIM-3+ Th1 T cells) (mouse) (UniProt Q8VIM0)
Experiment: cell-based or functional assay

Chain of UniProt Q8VIM0 (Q8VIM0 other isoform, or with tags, fused parts or gaps limits assumed): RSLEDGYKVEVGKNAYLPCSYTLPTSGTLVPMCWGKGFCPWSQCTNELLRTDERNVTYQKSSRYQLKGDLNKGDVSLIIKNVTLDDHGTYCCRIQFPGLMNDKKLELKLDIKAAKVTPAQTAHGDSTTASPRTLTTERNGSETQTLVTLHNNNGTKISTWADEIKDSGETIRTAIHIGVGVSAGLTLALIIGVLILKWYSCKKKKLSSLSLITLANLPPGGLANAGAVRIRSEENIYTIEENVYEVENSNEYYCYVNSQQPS

production of TNF-α in response to LPS and LPS plus galectin-9, TIM-3-/- DCs relative to wild type DCs: 30 to 40%
Substance: recombinant human galectin-9 (from UniProt O00182 1-355) (ligand)
